This is an account of results in publication PMC10825162 (Nature Communications, 2024).

In the assay the target is SARS-CoV-2 spike (reference strain) expressed on CHO-K1 cells (SARS-CoV-2 reference strain (Wuhan-Hu-1), UniProt P0DTC2). In words: flow cytometry on cells. The note with it: one partner purified.

B1: BA7208 (antibody, V domains shown)
VH: EVQLVQSGAEVKKPGESLKISCKGSGYSFTSYYWIGWVRQMPGKGLEWMGIVYPDDSDTRYSPSFQGQVTISADKSISTAYLQWSSLKASDTAMYYCVRHPGGGDWYFDLWGRGTLVTVSS
VL: DIQMTQSPSTLSASVGDRVTITCRASQSISSWLAWYQQKPGKAPKLLIYKASSLESGVPSRFSGSGSGTEFTLTITSLQPDDFATYYCQQYDSFSWTFGQGTKLEIK
With B1, the binding result was “binds”.
